# Changes are numbered by the printed parent chain. Names and notes keep the numbering of the source.
# B1: bivalent bispecific B-Body “BC1” (bispecific antibody)
# chain 1: not shown
# chain 2: EVQLVESGGGLVQPGGSLRLSCAASGFTFSDYDIHWVRQAPGKGLEWVGDITPYDGTTNYADSVKGRFTISADTSKNTAYLQMNSLRAEDTAVYYCARLVGEIATGFDYWGQGTLVTVSSASPREPQVYTDPPSRDELTKNQVSLTCLVKGFYPSDIAVEWESNGQPENNYKTTPPVLDSDGSFFLYSKLTVDKSRWQQGNVFSCSVMHEALHNHYTQKSLSLSGEC
# chain 3: not shown
# chain 4: QVQLVESGGGVVQPGRSLRLDCKASGITFSNSGMHWVRQAPGKGLEWVAVIWYDGSKRYYADSVKGRFTISRDNSKNTLFLQMNSLRAEDTAVYYCATNDDYWGQGTLVTVSSASTKGPSVFPLAPSSKSTSGGTAALGCLVKDYFPEPVTVSWNSGALTSGVHTFPAVLQSSGLYSLSSVVTVPSSSLGTQTYICNVNHKPSNTKVDKKVEPPKSC
# notes: A:F site for Antigen A, H:L site nivolumab variable domains (PD1)
# B2: I2A-10 BC1 1×2 B-body (I2A-10 x SP34-89) (bispecific antibody)
# chain 1: not shown
# chain 2: EVQLVESGGGLVQPGGSLRLSCAASGFTFSSYFIHWVRQAPGKGLEWVAGIYPSDGYTSYADSVKGRFTISADTSKNTAYLQMNSLRAEDTAVYYCARYYSGMDYWGQGTLVTVSSASPREPQVYTDPPSRDELTKNQVSLTCLVKGFYPSDIAVEWESNGQPENNYKTTPPVLDSDGSFFLYSKLTVDKSRWQQGNVFSCSVMHEALHNHYTQKSLSLSGEC
# chain 3: DIQMTQSPSSLSASVGDRVTITCRASQSVSSAVAWYQQKPGKAPKLLIYSASSLYSGVPSRFSGSRSGTDFTLTISSLQPEDFATYYCQQYYYYPGTFGQGTKVEIKRTPREPQVYTLPPSRDELTKNQVSLKCLVKGFYPSDIAVEWESNGQPENNYKTTPPVLDSDGSFFLYSKLTVDKSRWQQGNVFSCSVMHEALHNHYTQKSLSLSKSCTASSGGSSSGQAVVTQEPSLTVSPGGTVTLTCRSSTGAVTTSNYANWVQQKPGQAPRGLIGGTNKRAPWTPARFSGSLLGGKAALTITGAQAEDEADYYCALWYSNLWVFGGGTKLTVLGRTVAAPSVFIFPPSDEQLKSGTASVVCLLNNFYPREAKVQWKVDNALQSGNSQESVTEQDSKDSTYSLSSTLTLSKADYEKHKVYACEVTHQGLSSPVTKSFNRGECDKTHTCPPCPAPEAAGGPSVFLFPPKPKDTLMISRTPEVTCVVVDVSHEDPEVKFNWYVDGVEVHNAKTKPREEQYNSTYRVVSVLTVLHQDWLNGKEYKCKVSNKALKAPIEKTISKAKGQPREPQVCTLPPSREEMTKNQVSLSCAVKGFYPSDIAVEWESNGQPENNYKTTPPVLDSDGSFFLVSKLTVDKSRWQQGNVFSCSVMHEALHNHYTQKSLSLSPGK
# chain 4: EVQLVESGGGLVQPGGSLRLSCAASGFTFNTYAMNWVRQAPGKGLEWVARIRSKYNNYATYYADSVKGRFSISRDDSKNTAYLQMNSLRAEDTAVYYCVRHGNFGNSYVSWFAYWGQGTLVTVSSASTKGPSVFPLAPSSKSTSGGTAALGCLVKDYFPEPVTVSWNSGALTSGVHTFPAVLQSSGLYSLSSVVTVPSSSLGTQTYICNVNHKPSNTKVDKKVEPPKSC
# B3: I2A-27 BC1 1×2 B-body (I2A-27 x SP34-89), Example 20 (bispecific antibody)
# chain 1: not shown
# chain 2: EVQLVESGGGLVQPGGSLRLSCAASGFTFKGYYIHWVRQAPGKGLEWVAAIYPYGGSTDYADSVKGRFTISADTSKNTAYLQMNSLRAEDTAVYYCARVYIYGVFDYWGQGTLVTVSSASPREPQVYTDPPSRDELTKNQVSLTCLVKGFYPSDIAVEWESNGQPENNYKTTPPVLDSDGSFFLYSKLTVDKSRWQQGNVFSCSVMHEALHNHYTQKSLSLSGEC
# chain 3: B2 chain 3 with Y93S, Y94S, G96R
# chain 4: B2 chain 4
# B4: SP34-89 humanized antibody (antibody, V domains shown)
# VH: EVQLVESGGGLVQPGGSLRLSCAASGFTFNTYAMNWVRQAPGKGLEWVARIRSKYNNYATYYADSVKGRFSISRDDSKNTAYLQMNSLRAEDTAVYYCVRHGNFGNSYVSWFAYWGQGTLVTV
# VL: QAVVTQEPSLTVSPGGTVTLTCRSSTGAVTTSNYANWVQQKPGQAPRGLIGGTNKRAPWTPARFSGSLLGGKAALTITGAQAEDEADYYCALWYSNLWVFGGGTKLTVL
# B5: non-mutagenized SP34-89 monovalent B-Body (bispecific antibody, V domains shown)
# VH: B4 VH
# VL: B4 VL
# notes: cloned into one arm of a 1×1 BC1 B-Body
# B6: I2A-27 IgG1 (antibody, V domains shown)
# VH: EVQLVESGGGLVQPGGSLRLSCAASGFTFKGYYIHWVRQAPGKGLEWVAAIYPYGGSTDYADSVKGRFTISADTSKNTAYLQMNSLRAEDTAVYYCARVYIYGVFDYWGQGTLVTVSS
# VL: DIQMTQSPSSLSASVGDRVTITCRASQSVSSAVAWYQQKPGKAPKLLIYSASSLYSGVPSRFSGSRSGTDFTLTISSLQPEDFATYYCQQYYSSPRTFGQGTKVEIKR
# notes: bivalent monospecific native human full-length IgG1; the Domain F / Domain A entries end with AS / RT of the junction to the constant domain; also called clone I2-A27; I2-A27 IgG antibody
# B7: I2A-10 D54E Y55Q IgG (antibody, V domains shown)
# VH: EVQLVESGGGLVQPGGSLRLSCAASGFTFSSYFIHWVRQAPGKGLEWVAGIYPSEGYTSYADSVKGRFTISADTSKNTAYLQMNSLRAEDTAVYYCARYYVSGMDYWGQGTLVTVSS
# VL: B6 VL with Y55Q, S93Y, S94Y, R96G
# notes: bivalent monospecific IgG; the Domain F / Domain A entries end with AS / RT of the junction to the constant domain; also called I2-A10 D54E Y55Q IgG antibody
# Columns and labels:
# CTLA4 = biological target: T1, CTLA4 (UniProt P16410 36-161, limits assumed); experiment: Octet; antigen immobilized, B-Body as analyte
# T1 sequence (looked up): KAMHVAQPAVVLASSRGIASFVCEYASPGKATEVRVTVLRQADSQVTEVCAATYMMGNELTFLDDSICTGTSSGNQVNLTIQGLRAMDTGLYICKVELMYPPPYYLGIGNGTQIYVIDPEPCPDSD
# Source text: In each instance, the antigen is immobilized and the B-Body is the analyte.
# ROR1 on tumor cell lines = ROR1 on tumor cell lines (human, UniProt Q01973 30-937); experiment: cell-based or functional assay
# Sequence of ROR1 on tumor cell lines (Q01973 30-937 limits assumed): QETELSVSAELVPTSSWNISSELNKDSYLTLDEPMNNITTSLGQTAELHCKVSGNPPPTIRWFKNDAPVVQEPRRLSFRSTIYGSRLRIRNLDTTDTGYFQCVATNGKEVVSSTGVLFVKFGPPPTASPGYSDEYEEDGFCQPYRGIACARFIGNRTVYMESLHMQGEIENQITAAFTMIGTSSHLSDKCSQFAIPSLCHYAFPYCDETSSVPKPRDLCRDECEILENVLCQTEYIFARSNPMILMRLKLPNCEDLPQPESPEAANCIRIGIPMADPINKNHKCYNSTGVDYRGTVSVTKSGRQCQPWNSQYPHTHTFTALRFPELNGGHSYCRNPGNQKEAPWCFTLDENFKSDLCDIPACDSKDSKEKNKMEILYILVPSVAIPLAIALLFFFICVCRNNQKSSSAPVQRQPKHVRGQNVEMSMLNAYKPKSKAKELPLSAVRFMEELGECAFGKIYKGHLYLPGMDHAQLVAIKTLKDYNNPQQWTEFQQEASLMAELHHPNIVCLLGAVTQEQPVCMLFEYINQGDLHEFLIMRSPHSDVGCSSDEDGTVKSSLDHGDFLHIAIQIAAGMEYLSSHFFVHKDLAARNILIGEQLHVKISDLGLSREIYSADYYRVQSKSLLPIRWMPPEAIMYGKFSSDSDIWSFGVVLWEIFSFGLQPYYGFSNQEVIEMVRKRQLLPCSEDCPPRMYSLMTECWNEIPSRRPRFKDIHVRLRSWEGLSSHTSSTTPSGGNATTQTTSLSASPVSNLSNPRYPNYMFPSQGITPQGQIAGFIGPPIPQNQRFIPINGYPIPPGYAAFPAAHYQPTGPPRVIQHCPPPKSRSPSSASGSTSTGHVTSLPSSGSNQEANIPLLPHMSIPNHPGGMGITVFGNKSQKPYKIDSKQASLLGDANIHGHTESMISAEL
# CD3 on Jurkat T cells = biological target: T2, CD3 on Jurkat T cells (human, UniProt P07766 23-207; P04234 22-171); experiment: flow cytometry on Jurkat T cells, fluorescently labeled secondary antibody, MFI against antibody concentration
# T2 construct: also called human CD3; copies: 1 + 1
# T2 sequence (P07766 23-207 limits assumed, chain 1 of 2): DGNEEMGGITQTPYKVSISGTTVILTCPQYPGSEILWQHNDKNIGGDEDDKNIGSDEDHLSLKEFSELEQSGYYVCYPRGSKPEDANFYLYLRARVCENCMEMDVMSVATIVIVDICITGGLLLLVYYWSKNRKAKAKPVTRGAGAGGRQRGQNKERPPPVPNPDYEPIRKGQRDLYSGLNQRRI
# T2 sequence (P04234 22-171 limits assumed, chain 2 of 2): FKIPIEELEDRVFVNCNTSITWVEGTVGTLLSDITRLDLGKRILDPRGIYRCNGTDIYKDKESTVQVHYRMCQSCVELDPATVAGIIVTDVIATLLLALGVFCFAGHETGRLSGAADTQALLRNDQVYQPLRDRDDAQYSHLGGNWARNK
# Source text: (§1) In this Example, the binding to human and cynomolgus CD3 was further characterized by assessing cell binding to Jurkat T cells, a Jurkat CD3 knock-out cell line, or a cynomolgus T cell line.
# [1] = biological target: T3, CD3 on a cynomolgus T cell line (cynomolgus); experiment: flow cytometry on a cynomolgus T cell line, fluorescently labeled secondary antibody, MFI against antibody concentration
# T3 construct: whole, on cells; also called cynomolgus CD3
# T3 sequence (Q95LI5 22-198, chain 1 of 3): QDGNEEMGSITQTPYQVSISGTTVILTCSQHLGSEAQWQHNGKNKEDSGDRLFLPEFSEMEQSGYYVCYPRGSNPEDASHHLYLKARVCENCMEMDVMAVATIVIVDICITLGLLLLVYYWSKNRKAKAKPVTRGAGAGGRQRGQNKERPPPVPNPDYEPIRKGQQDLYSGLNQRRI
# T3 sequence (Q95LI8 22-171, chain 2 of 3, further chain): as the sequence (P04234 22-171 limits assumed, chain 2 of 2) above, with I5V, N15K, I20V, S32T, D33N, I34N, T64A, S74N, V83L, H141R counted along it
# T3 sequence (Q95LI7 23-181, chain 3 of 3, further chain): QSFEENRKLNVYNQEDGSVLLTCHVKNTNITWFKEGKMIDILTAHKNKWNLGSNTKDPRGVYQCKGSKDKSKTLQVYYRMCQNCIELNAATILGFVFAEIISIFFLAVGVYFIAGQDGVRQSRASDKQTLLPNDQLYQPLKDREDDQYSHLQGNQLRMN
# Source text: as §1
# [2] = biological target: human CD3 delta and epsilon heterodimer (human, UniProt P07766 23-126; P04234 22-105); experiment: BLI (Octet), two-fold serial dilution 200-12.5 nM of the construct
# Sequence of human CD3 delta and epsilon heterodimer (P07766 23-126, stated change not applied, chain 1 of 2): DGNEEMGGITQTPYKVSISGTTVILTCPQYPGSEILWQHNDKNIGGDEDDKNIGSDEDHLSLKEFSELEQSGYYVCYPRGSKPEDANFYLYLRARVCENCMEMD
# Sequence of human CD3 delta and epsilon heterodimer (P04234 22-105, stated change not applied, chain 2 of 2): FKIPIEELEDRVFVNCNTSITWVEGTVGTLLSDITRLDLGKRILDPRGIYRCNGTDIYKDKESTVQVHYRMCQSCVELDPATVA
# [3] = biological target: T4, extracellular domain of human ROR1 (human, UniProt Q01973 30-406); experiment: BLI, monovalent format, IgG on Fc biosensor
# T4 construct: bought protein; biotinylated in the bivalent assay format; also called Acro Cat. No. RO1-H522y
# T4 sequence (Q01973 30-406 limits assumed): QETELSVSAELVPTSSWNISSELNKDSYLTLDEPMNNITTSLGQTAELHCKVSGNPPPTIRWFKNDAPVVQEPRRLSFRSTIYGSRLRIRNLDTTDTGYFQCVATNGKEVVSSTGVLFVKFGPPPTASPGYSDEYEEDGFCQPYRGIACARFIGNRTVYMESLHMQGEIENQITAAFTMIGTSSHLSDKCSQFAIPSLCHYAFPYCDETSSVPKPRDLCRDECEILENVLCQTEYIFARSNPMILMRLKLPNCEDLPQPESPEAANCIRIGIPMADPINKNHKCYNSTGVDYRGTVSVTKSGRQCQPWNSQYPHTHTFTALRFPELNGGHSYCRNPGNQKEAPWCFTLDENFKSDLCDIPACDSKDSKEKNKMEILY
# [4] = biological target: T4, extracellular domain of human ROR1; experiment: BLI (Octet), IgG1, two-fold serial dilution 200-12.5 nM
# Source text: To measure binding affinity in ROR binder discovery campaigns, the VL and VH domains identified in the phage screen described above were formatted into a bivalent monospecific native human full-length IgG1 architecture and immobilized to a biosensor on an Octet (Pall ForteBio) biolayer interferometer. Soluble ROR antigens, including the extracellular domains of ROR1 (Acro Cat. No. RO1-H522γ) and ROR2 (Acro Cat. No. R02-H52E5), as well as the individual ROR1 Frizzled (Acro Cat. No. RO1-H5222), Ig-like (Acro Cat. No. RO1-H5221), and Kringle (Acro Cat. No. RO1-H5223) domains, were then added to the system and binding measured.
# The VH and VL sequences above were formatted into a bivalent monospecific native human full-length IgG1 architecture.
# [5] = biological target: T4, extracellular domain of human ROR1; experiment: BLI (Octet QK384), monovalent format: antibody captured on Fc biosensor, untagged antigen as analyte
# [6] = biological target: T4, extracellular domain of human ROR1; experiment: BLI, monovalent format
# Experimental: (§2) More specifically, monovalent binding affinity analysis was performed using the Octet^QK 384 (ForteBio) using Fc biosensors. Unlabeled B-body™ is first bound to the Fc biosensor at a concentration to yield approximately 1 nm response (typically 10 to 50 nM protein). The biosensors are then equilibrated in 10× Kinetic Buffer (ForteBio) to establish a baseline. The untagged monomer of each antigen is contacted with the antibody-coated sensors at concentrations ranging from 50 nm to 0.75 nM. The association response and dissociation were monitored and recorded. The resulting Kₒₙ and Koff was fit using the Octet analysis software.
# (§3) Next, the binding of the antibody to ROR1 and ROR2 was assessed using the monovalent and bivalent BLI binding assessments as described in Example 24.
# [7] = biological target: T5, extracellular domain of human ROR2 (human, UniProt Q01974 34-403); experiment: BLI, monovalent format
# T5 construct: bought protein; biotinylated in the bivalent assay format; also called Acro Cat. No. RO2-H52E5
# T5 sequence (Q01974 34-403 limits assumed): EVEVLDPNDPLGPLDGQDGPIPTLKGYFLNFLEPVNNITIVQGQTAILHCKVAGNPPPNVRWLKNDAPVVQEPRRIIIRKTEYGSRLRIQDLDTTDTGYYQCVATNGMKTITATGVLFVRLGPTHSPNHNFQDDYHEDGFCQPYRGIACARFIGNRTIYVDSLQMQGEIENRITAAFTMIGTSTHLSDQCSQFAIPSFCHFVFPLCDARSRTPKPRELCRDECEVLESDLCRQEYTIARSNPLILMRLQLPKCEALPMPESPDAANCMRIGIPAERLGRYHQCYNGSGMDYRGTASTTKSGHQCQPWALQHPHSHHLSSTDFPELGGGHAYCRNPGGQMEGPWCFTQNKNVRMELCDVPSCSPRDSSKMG
# Experimental: as §2, §3
# [8] = biological target: T4, extracellular domain of human ROR1; experiment: BLI (Octet QK384), monovalent format: antibody captured on Fc biosensor, untagged antigen as analyte; remark: listed apart in the source
# Experimental: as §2, §3
# [9] = biological target: T5, extracellular domain of human ROR2; experiment: as above
# Experimental: as §2, §3
binder,measurement,setting,value
B1,binding result,CTLA4,no binding
B2,"EC50, CD8+ T cell mediated killing of MDA-MB-231 (LDH)",ROR1 on tumor cell lines,0.013 nM
B3,"EC50, CD8+ T cell mediated killing of MDA-MB-231 (LDH)",ROR1 on tumor cell lines,0.0082 nM
B4,EC50 (read off the curve),CD3 on Jurkat T cells,~0.6 nM
same,EC50 (read off the curve),[1],~0.7 nM
B5,Kd,[2],23 nM
same,koff,[2],0.0071 s⁻¹
same,kon,[2],300000 M⁻¹ s⁻¹
B6,Kd,[3],2.8 nM
same,Kd,[4],4.1 nM
same,koff,[4],0.00185 s⁻¹
same,kon,[4],511000 M⁻¹ s⁻¹
same,koff,[5],0.0026 s⁻¹
same,kon,[5],940000 M⁻¹ s⁻¹
B7,Kd,[6],0.7 nM
same,Kd,[7],< 0.001 nM
same,koff,[8],0.00039 s⁻¹
same,kon,[8],550000 M⁻¹ s⁻¹
same,koff,[9],< 1e-07 s⁻¹
same,kon,[9],140000 M⁻¹ s⁻¹

# Reference: patent publication US20240392002A1 (EXELIXIS, published 2024)
